This assay concerns the target StrepHA-SGFP2 (control). Kind of assay: co-IP; co-IP/HiBiT assay: SGFP2-fused proteins immunoprecipitated with anti-GFP pAb from HEK293 or HEK293 ALG-2KO lysates (with or without co-expressed FLAG-ALG-2); HKM, 1% Nonidet P-40, 10 mM NEM, 10 μM CaCl2; co-precipitated HiBiTHA-SARAF read by lytic HiBiT assay with LgBiT, normalised by …. (With HiBiT, luminescence reflects the tagged protein that the partner subunit can reach.)

A value given as a limit tells only on which side of the number the result lay.

B1: full-length HiBiTHA-SARAF (WT) (natural protein)
chain: WNDPDRMLLRDVKALTLHYDRYTTSRRLDPIPQLKCVGGTAGCDSYTPKVIQCQNKGWDGYDVQWECKTDLDIAYKFGKTVVSCEGYESSEDQYVLRGSCGLEYNLDYTELGLQKLKESGKQHGFASFSDYYYKWSSADSCNMSGLITIVVLLGIAFVVYKLFLSDGQYSPPPYSEYPPFSHRYQRFTNSAGPPPPGFKSEFTGPQNTGHGATSGFGSAFTGQQGYENSGPGFWTGLGTGGILGYLFGSNRAATPFSDSWYYPSYPPSYPGTWNRAYSPLHGGSGSYSVCSNSDTKTRTASGYGGTRRR
On to B1, for which the relative interaction activity (WT expressed as 100%) was below 0.3%.
